Measurements published in the supplement of paper PMC12764529.
± gives the half width of the 95% confidence interval.

What was measured:
[1] = folding stability dG unfold (combined trypsin and chymotrypsin); higher = more stable
Outline: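 K50 was inferred by Bayesian fitting of sequencing counts obtained after protease digestion of designed mini-proteins. Unfolding free energy was derived by comparison with a sequence-predicted unfolded-state K50 and a shared folded-state K50, for each protease or both combined. The mini-proteins were under 80 residues, had no cysteine, were carried in a PA-tagged cDNA display construct, and were kept only if AlphaFold2 dimer inter-PAE exceeded 15.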

[2] = folding stability dG unfold from chymotrypsin proteolysis; higher = more stable
Description: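 Folding stability of de novo designed mini-proteins (<80 aa, no Cys; designed by TrROS, TrMRF, ProteinMPNN and the joint model) was measured by cDNA display proteolysis with trypsin and chymotrypsin. Each protease was used at 11 concentrations in a threefold dilution series plus a no-protease condition. K50 was inferred by Bayesian fitting of sequencing counts, and dG unfold was derived against a sequence-predicted unfolded-state K50 (Tsuboyama et al. method). Sequences shown include variable-length N-terminal GS-type padding (SAGGSAGG...) inside a display construct carrying a PA tag. Rows were kept only if the AF2 dimer inter-PAE was >15, to exclude likely homo-oligomers.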

Q: For “SAGGSAGGSAGGPEIKPFDSLEEVVEEIKKNPNKERIYLLPDSVIYTLKEDKILKIEPLKSAGGSAGGSAGG [r7_532_TrMRF]”, which “folding stability dG unfold” value [1] is on record?
A: The value was under -1 kcal/mol.

Q: What about the “folding stability dG unfold” value [2] of the same sequence?
A: The value was -0.105 ± 0.47 kcal/mol.

Q: Which “folding stability dG unfold” value [1] does the source give for “SAGGMKIEKTPVKIEKEGEDTVIEYKETEYLPDGTVKEYEGILRIPKNTGKITTLEKKLLSTEPILGSAGGS [r16_729_JUSTAS]” here?
A: The value was under -1 kcal/mol.

Q: What about the “folding stability dG unfold” value [2] of the same sequence?
A: Its value is -0.377 ± 0.3 kcal/mol.

Q: What does the source list for “SAGMKVTVSPASLVFDPATGRLLRPVLVTVEDTGGGGKTPAEEQAAAAEATRRALAAELAPRTGSALDLSAG [r5_333_JUSTAS]”?
A: folding stability dG unfold [1]: 0.37 ± 0.091 kcal/mol; folding stability dG unfold [2]: 0.912 ± 0.069 kcal/mol

Q: Which “folding stability dG unfold” value [1] does the source give for “SAGGSAGGSAAPDLVTETETRTHPETGLVITRERVTLPSTGTTEERTVVTDPETGVTTTEKSSAGGSAGGSA [r18_383_JUSTAS]” here?
A: The value was -0.139 ± 0.13 kcal/mol.

Q: What about the “folding stability dG unfold” value [2] of the same sequence?
A: The value was 0.294 ± 0.038 kcal/mol.

Q: With “SAGAVSTFENSNPSISLEELKEKIEEKLGIELVELKKVEDVPGGLKYEIVVPKIKGEKPFSAEEIAKLLSAG [r5_550_JUSTAS]” as the sequence, how does the “folding stability dG unfold” value [1] read?
A: The value was -0.434 ± 0.56 kcal/mol.

Q: And the “folding stability dG unfold” value [2]?
A: Its value is -0.0356 ± 0.5 kcal/mol.

Q: Which results are given for “SAGGSSAEELAEALKKKLEELGLEIKELELKVKKVKVEEKPKPKVELKEEKVEVKEKKFYSEEEKKSAGGSA [r2_384_TrROS_Hall]”?
A: folding stability dG unfold [1]: < -1 kcal/mol; folding stability dG unfold [2]: -0.485 ± 0.69 kcal/mol

Q: Which “folding stability dG unfold” value [1] does the source give for “SSTPKLEEIERPNARFKVTTYTYPNSVKTTADATFPDGTKGKIEETYTPTPEGVKKTVKKDLPPEVKEKLES [r1_153_JUSTAS]” here?
A: Its value is under -1 kcal/mol.

Q: And the “folding stability dG unfold” value [2]?
A: Its value is 0.0664 ± 0.46 kcal/mol.

Q: For “SAGGSAGGTIRIPPAARNMMKELQKQGFVIEEIKIDEIERTENGPPWIEIDFEIKKLPPEALKDSAGGSAGG [r6_771_TrROS]”, which “folding stability dG unfold” value [1] is on record?
A: The value was -0.939 ± 0.89 kcal/mol.

Q: And the “folding stability dG unfold” value [2]?
A: The value was -0.317 ± 0.33 kcal/mol.

Q: For “SAGGSALKVKSVHQNPDDNYYMITVTIPGPDKAPREIMFPSPEDLEDKLDNLPPGIESVEIHPMKPSAGGSA [r15_589_TrROS]”, which “folding stability dG unfold” value [1] is on record?
A: Its value is under -1 kcal/mol.

Q: And the “folding stability dG unfold” value [2]?
A: The value was -0.203 ± 0.19 kcal/mol.

Q: For “SAGGSAGGSAGGVTVSPEEYLATFPPGLTLRDSAGNLHELGDRAPVDPAAPVTLLSPEELSAGGSAGGSAGG [r7_507_JUSTAS]”, which “folding stability dG unfold” value [1] is on record?
A: Its value is -0.18 ± 0.12 kcal/mol.

Q: And the “folding stability dG unfold” value [2]?
A: Its value is 0.464 ± 0.039 kcal/mol.

Q: Which results are given for “SAGGSAGGSAMKLLETKVSRSLVPETGVVVTPVTTTTLGPGGKREVIEETEVRVLPPDAPPPSAGGSAGGSA [r18_95_JUSTAS]”?
A: folding stability dG unfold [1]: < -1 kcal/mol; folding stability dG unfold [2]: -0.625 ± 0.19 kcal/mol

Q: Which “folding stability dG unfold” value [1] does the source give for “SAGGSAGGSAGGGYVTLSHEIPPDQSVEITAPDGKKAKQERDPATKTVTYKISPELYKLLSAGGSAGGSAGG [r7_155_JUSTAS]” here?
A: Its value is under -1 kcal/mol.

Q: What about the “folding stability dG unfold” value [2] of the same sequence?
A: The value was -0.855 ± 0.56 kcal/mol.

Q: Which results are given for “SAGGSAGGSAGGSKPDPEIEQERNPEKGYRTIKIEFPDKPRTIMVKNLPPDDPALRDAFSAGGSAGGSAGGS [r4_328_TrROS]”?
A: folding stability dG unfold [1]: -0.349 ± 0.18 kcal/mol; folding stability dG unfold [2]: -0.0426 ± 0.23 kcal/mol

Q: Which “folding stability dG unfold” value [1] does the source give for “SAGGMTVTLRLTDPAGEEYTVTVTKTEGKSTATVYGPGGELVETRDFSSAEEAIAYLRAQGYTVEVIESAGG [r13_315_JUSTAS]” here?
A: Its value is 5.34 ± 0.081 kcal/mol.

Q: And the “folding stability dG unfold” value [2]?
A: The value was 5.323 ± 0.049 kcal/mol.

Q: With “SAGGSAGGSAGGDEILELERIPETGELVLRRITPDGEGFRIEEEVVPVGPELAEALPEGSAGGSAGGSAGGS [r10_291_TrMRF]” as the sequence, how does the “folding stability dG unfold” value [1] read?
A: The value was under -1 kcal/mol.

Q: What about the “folding stability dG unfold” value [2] of the same sequence?
A: The value was -0.279 ± 0.34 kcal/mol.

Q: For “SAGGSAGGSEKLEIVKAFVFENEVILIVKKEKEYYVLKLKFKDGKIESLEFIGPVPENDPSLGSAGGSAGGS [r12_154_TrMRF]”, which “folding stability dG unfold” value [1] is on record?
A: The value was 5.27 ± 0.48 kcal/mol.

Q: What about the “folding stability dG unfold” value [2] of the same sequence?
A: Its value is 4.92 ± 0.16 kcal/mol.

Q: For “SMTLVGTTTLPNATVTTYKNETKYIVLTYDPVEAGEPAAVSYVEKYEGNKVVKKKKVAPEEIEKAIEELLSA [r9_57_JUSTAS]”, which “folding stability dG unfold” value [1] is on record?
A: Its value is 0.247 ± 0.48 kcal/mol.

Q: And the “folding stability dG unfold” value [2]?
A: The value was 0.609 ± 0.32 kcal/mol.

Q: Which results are given for “SAGGSAGGDIKIEDIEYEQNPGGWQKVEVRLPGNGRPIEVPVPPGMPYEQAKDWAKDWAEELLKSAGGSAGG [r6_628_TrROS]”?
A: folding stability dG unfold [1]: 0.511 ± 0.22 kcal/mol; folding stability dG unfold [2]: 0.724 ± 0.13 kcal/mol

Q: Which “folding stability dG unfold” value [1] does the source give for “SAGGSAGGSAGGMVEVLPVPDGSTLERDPAGYVTRYDPATGTATTVPLADVELSPGSPELSAGGSAGGSAGG [r7_656_JUSTAS]” here?
A: Its value is -0.0715 ± 0.23 kcal/mol.

Q: What about the “folding stability dG unfold” value [2] of the same sequence?
A: Its value is 0.679 ± 0.11 kcal/mol.

Q: With “SPAPPMRIDNIKPEKEDPNGDERKYRVYWQGPNGRPYHYEGPLEELEDMLDEDNIDPDNFWPGDEITIKVSA [r9_1078_TrROS]” as the sequence, how does the “folding stability dG unfold” value [1] read?
A: Its value is 0.421 ± 0.31 kcal/mol.

Q: What about the “folding stability dG unfold” value [2] of the same sequence?
A: Its value is 0.869 ± 0.12 kcal/mol.
